Assay results published in US11702475B2, “Cysteine engineered fibronectin type III domain binding molecules” (Janssen Biotech, Inc., priority 2013, dated 2023).
Numbering of substitutions follows the chain as printed. “Also recorded” adds a separate entry of the source. Where two headings read alike, the source gives them in different places.

Legend:
[1] = tested on: H292-HGF human lung cancer xenograft; assay: Efficacy of bispecific molecule and other inhibitors in subcutaneous H292-HGF xenograft model; format: in vivo, SCID/Beige mice; conditions: for mean tumor size: ECB38 25 mg/kg; for antitumor activity (in words): doses as in E46
Procedure: The H292-HGF cells were maintained in vitro in RPMI1640 medium supplemented with fetal bovine serum (10% v/v), and L-glutamine (2 mM) at 37° C. in an atmosphere of 5% CO2 in air. The cells were routinely subcultured twice weekly by trypsin-EDTA treatment. The cells growing in an exponential growth phase were harvested and counted for tumor inoculation.
Each mouse was inoculated subcutaneously at the right flank region with H292-HGF tumor cells (2×10^6) in 0.1 ml of PBS with cultrex (1:1) for tumor development. The treatments were started when the mean tumor size reached 139 mm^3. […] The date of tumor cell inoculation was denoted as day 0.
Before commencement of treatment, all animals were weighed and the tumor volumes were measured. Since the tumor volume can affect the effectiveness of any given treatment, mice were assigned into groups using randomized block design based upon their tumor volumes. […] The randomized block design was used to assign experimental animals to groups. First, the experimental animals were divided into homogeneous blocks according to their initial tumor volume. Secondly, within each block, randomization of experimental animals to treatments was conducted.
The major endpoint was whether tumor growth can be delayed or tumor bearing mice can be cured. Tumor size was measured twice weekly in two dimensions using a caliper, and the volume was expressed in mm^3 using the formula: V=0.5 a×b^2 where a and b are the long and short diameters of the tumor, respectively. The tumor size was then used for calculations of both T−C and T/C values. T−C was calculated with T as the time (in days) required for the mean tumor size of the treatment group to reach 1000 mm^3, and C was the time (in days) for the mean tumor size of the control group to reach the same size. The T/C value (in percent) was an indication of antitumor efficacy; T and C were the mean volume of the treated and control groups, respectively, on a given day. Complete tumor regression (CR) is defined as tumors that are reduced to below the limit of palpation (62.5 mm^3). Partial tumor regression (PR) is defined as tumors that are reduced from initial tumor volume. A minimum duration of CR or PR in 3 or more successive tumor measurements is required for a CP or PR to be considered durable.
Statistical analyses of difference in tumor volume among the groups were evaluated using a one-way ANOVA followed by individual comparisons using Games-Howell (equal variance not assumed). All data were analyzed using SPSS 18.0. p<0.05 was considered to be statistically significant.

[2] = Body weight and tolerability in the H292-HGF xenograft study
Procedure: (§2) At the time of routine monitoring, the animals were checked for any effects of tumor growth and treatments on normal behavior, such as mobility, visual estimation of food and water consumption, body weight gain/loss (body weights were measured twice weekly), eye/hair matting and any other abnormal effect.
(§3) Animals for which the body weight loss exceeded 20%, or for which the mean tumor size of the group exceeds 2000 mm^3 were euthanized. The study was terminated after two weeks of observation after the final dose.

[3] = tested on: H292-HGF tumor xenografts; assay: Tumor efficacy study with bispecific EGFR/c-Met molecules of variable affinity; format: in vivo, SCID Beige mice; conditions: 25 mg/kg three times per week
Procedure: One week after implantation, mice were stratified into groups with equivalent tumor volumes (mean tumor volume=77.9+/−1.7 mm^3). Mice were dosed three times per week with the bispecific molecules and tumor volumes were recorded twice weekly.

[4] = mouse, in vivo, ip
Procedure: SCID Beige mice were subcutaneously inoculated with NCI-H292 cells expressing human HGF (2.0×10^6 cells in Cultrex (Trevigen) in a volume of 200 μL) on the dorsal flank of each animal. Tumor measurements were taken twice weekly until tumor volumes ranged between 150-250 mm^3. […] At 6h or 72h after dosing, tumors were extracted and immediately frozen in liquid nitrogen. […] Immediately after collection, the blood samples were centrifuged and the resulting plasma was transferred to sample tubes and stored at −80° C. Tumors were weighed, cut into small pieces, and lysed in Lysing Matrix A tubes (LMA) containing RIPA buffer with HALT protease/phosphatase inhibitors (Pierce), 50 mM sodium fluoride (Sigma), 2 mM activated sodium orthovanadate (Sigma), and 1 mM PMSF (MesoScale Discovery). Lysates were removed from LMA matrix and centrifuged to remove insoluble protein. The soluble tumor protein was quantified with a BCA protein assay and diluted to equivalent protein levels in tumor lysis buffer. Phosphorylated c-Met, EGFR and ERK were measured using assay plates from MesoScale Discovery (according to Manufacturer's protocol and as described above).

[5] = mouse, in vivo
Procedure: as §2, §3

EGFR [6] = molecular target: T1, EGFR (Homo sapiens, UniProt P00533); assay: Inhibition of EGFR phosphorylation in NCI-H441 cells; format: cell-based; conditions: FIG. 7C
Procedure: (§1) NCI-H292, NCI-H441, or NCI-H596 cells were plated in 96 well plates in RPMI medium containing 10% FBS. 24 hours later, medium was replaced with serum free RPMI. […] Cells were treated for 1h with the monospecific or bispecific molecules and then stimulated with EGF, HGF, or a combination of EGF and HGF for 15 minutes at 37° C., 5% CO2. Cells were lysed with MSD Lysis Buffer and cell signaling was assessed using appropriate MSD Assay plates, according to manufacturer's instructions, as described above.

EGFR [7] = molecular target: T1, EGFR; assay: Inhibition of EGFR phosphorylation in NCI-H292 cells; format: cell-based; conditions: FIG. 7A
Procedure: as §1
Purified bispecific PEG24-maleimide conjugates were tested for their ability to inhibit EGF-stimulated phosphorylation of EGFR in the human tumor cell line NCI-H292 (American Type Culture Collection, cat. #CRL-1848) using the EGFR phospho(Tyr1173) kit from Meso Scale Discovery (Gaithersburg, Md.) and as described in Example 3.

EGFR [8] = molecular target: T1, EGFR; assay: Inhibition of EGFR phosphorylation in NCI-H596 cells; format: cell-based; conditions: FIG. 7B
Procedure: as §1

[9] = day 23 after tumor inoculation, Crizotinib 50 mg/kg, Erlotinib 50 mg/kg, Cetuximab 1 mg/mouse

For C[C@@H](Oc1cc(-c2cnn(C3CCNCC3)c2)cnc1N)c1c(Cl)ccc(F)c1Cl [Crizotinib, crizotinib], the “Tumor volume (mm^3)” value ([1]; day 9 after tumor inoculation, mean ± SEM, bispecific 25 mg/kg, Crizotinib 50 mg/kg, Erlotinib 50 mg/kg, Cetuximab 1 mg/mouse) was 217 ± 20 mm^3, the “Tumor volume (mm^3)” value ([1]; day 13 after tumor inoculation, mean ± SEM, bispecific 25 mg/kg, Crizotinib 50 mg/kg, Erlotinib 50 mg/kg, Cetuximab 1 mg/mouse) was 547 ± 43 mm^3 and the “Tumor volume (mm^3)” value ([1]; day 16 after tumor inoculation, mean ± SEM, bispecific 25 mg/kg, Crizotinib 50 mg/kg, Erlotinib 50 mg/kg, Cetuximab 1 mg/mouse) was 914 ± 92 mm^3. The “Tumor volume (mm^3)” value ([1]; day 20 after tumor inoculation, mean ± SEM, bispecific 25 mg/kg, Crizotinib 50 mg/kg, Erlotinib 50 mg/kg, Cetuximab 1 mg/mouse) was 1438 ± 239 mm^3, the “T/C (%)” value ([1]; day 23, mean volume of treated vs control group, doses as in the Treatment column) was 120% and the “Tumor Size (mm^3) at day 23” value ([1]; day 23, mean ± SEM, bispecific 25 mg/kg, Crizotinib 50 mg/kg, Erlotinib 50 mg/kg, combination 50 mg/kg + 50 mg/kg, Cetuximab 1 mg/mouse) was 2102 ± 298 mm^3. The mean tumor size [1, 9] was 2,102 mm^3, the “Tumor volume (mm^3)” value ([1]; day 23 after tumor inoculation, mean ± SEM, bispecific 25 mg/kg, Crizotinib 50 mg/kg, Erlotinib 50 mg/kg, Cetuximab 1 mg/mouse) was 2102 ± 298 mm^3 and the “antitumor activity (in words)” value [1] was “no antitumor activity”. The “toxicity / body weight loss / tolerability (in words)” value ([2]; doses as in E46) was “More severe body weight loss”.

B1: ECB39: bispecific SEQ ID 121: P53A1R5-17V2, (AP)5, P114AR7P94-A3, linked to albumin binding domain (protein)
chain: MLPAPKNLVVSEVTEDSARLSWADPHGFYDSFLIQYQESEKVGEAIVLTVPGSERSYDLTGLKPGTEYTVSIYGVHNVYKDTNMRGLPLSAIFTTAPAPAPAPAPLPAPKNLVVSRVTEDSARLSWTAPDAAFDSFWIRYFEFLGSGEAIVLTVPGSERSYDLTGLKPGTEYVVNIMGVKGGKISPPLSAIFTTAPAPAPAPAPLAEAKVLANRELDKYGVSDYYKNLINNAKTVEGVKALLDEILAALP
modifications: Bispecific EGFR/c-Met binding molecule
For B1, the “tumor growth / tumor growth inhibition (in words)” value [3] was “showed the most efficacy” and the “tumor accumulation (in words)” value [4] was “significantly more tumor accumulation at 6 hours relative to the other molecules”.

B2: ECB38: bispecific SEQ ID 120: P54AR4-83V2, (AP)5, P114AR7P94-A3, linked to albumin binding domain (protein)
chain: B1 chain with A23D, H26W, G27A, D30E
modifications: Bispecific EGFR/c-Met binding molecule
In the case of B2, the “tumor growth / tumor growth inhibition (in words)” value [3] is reported as “showed the most efficacy”, the mean tumor size [1, 9] is reported as 23 mm^3 and the “antitumor activity (in words)” value [1] is reported as “complete tumor regression (CR) in all mice; also recorded: complete response”. The “toxicity / body weight loss / tolerability (in words)” value [5] was “Slight toxicity”, the “mice euthanized when BWL>20% during the treatment period” value ([2]; 25 mg/kg) was 3 mice and the “mice in which the treatment was tolerated” value ([2]; 25 mg/kg, 3 times/week x 3 weeks) was 7 out of 10.

B3: ECB5: bispecific SEQ ID 54: P53A1R5-17V2, (GGGGS)4, P114AR7P94-A3 (protein)
chain: MLPAPKNLVVSEVTEDSARLSWADPHGFYDSFLIQYQESEKVGEAIVLTVPGSERSYDLTGLKPGTEYTVSIYGVHNVYKDTNMRGLPLSAIFTTGGGGSGGGGSGGGGSGGGGSMLPAPKNLVVSRVTEDSARLSWTAPDAAFDSFWIRYFEFLGSGEAIVLTVPGSERSYDLTGLKPGTEYVVNIMGVKGGKISPPLSAIFTT
modifications: bispecific EGFR/cMet binding molecule
With B3 the “decrease of IC50 for inhibition of EGFR phosphorylation compared to the monospecific EGFR-binding FN3 domain” value (EGFR [6]) was 30 fold, the “inhibition of phosphorylation of EGFR, bispecific vs monospecific (in words)” value (EGFR [7]) was “comparable” and the “inhibition of phosphorylation of EGFR, bispecific vs monospecific (in words)” value (EGFR [8]) was “comparable”.
